# Source: the DeepSol protein solubility set
# Experiment: soluble on expression in E. coli; label from the status in PepcDB or PDB records
row,Sequence,soluble on expression in E. coli
1,MIKRFLEDTTDDGELSKFVKDFSGNASCHPPEAKTWASRPQVPEPRPQAPDLYDDDLEFRPPSRPQSSDNQQYFCAPAPLSPSARPRSPWGKLDPYDSSEDDKEYVGFATLPNQVHRKSVKKGFDFTLMVAGESGLGKSTLVNSLFLTDLYRDRKLLGAEERIMQTVEITKHAVDIEEKGVRLRLTIVDTPGFGDAVNNTECWKPVAEYIDQQFEQYFRDESGLNRKNIQDNRVHCCLYFISPFGHGLRPLDVEFMKALHQRVNIVPILAKADTLTPPEVDHKKRKIREEIEHFGIKIYQFPDCDSDEDEDFKLQDQALKESIPFAVIGSNTVVEARGRRVRGRLYPWGIVEVENPGHCDFVKLRTMLVRTHMQDLKDVTRETHYENYRAQCIQSMTRLVVKERNRNKLTRESGTDFPIPAVPPGTDPETEKLIREKDEELRRMQEMLHKIQKQMKENY,not soluble
2,MIKRILKIWFIIGMYELSKYLTNELIIYLQSEDDIDTAPKDFAILDDQIDLNRSFRRQIENDIAKAFEDAFNSSEKEDNLEHHHHHH,not soluble
3,MIKVDMTVDAKGLSCPMPIVRTKKAINELQPGQVLEVQATDKGSKADIKAWAESTGHQYLGTIEENGVLKHYIRKSAEHETRKETTFPHVVSNEELQEKLHDPDSFVLDVREPAEYAFGHIPGAVSIPLGELENRMAELPKDKTIYVVCRTGTRSDLAAQKLAEKGFDRVRNVIPGMSQWNGPLDSAQS,soluble
4,MIKVEIKPSQAQFTTRSGVSRQGKPYSLNEQLCYIDLGNEYPVLVKVTLDEGQPAYAPGLYTVHLSSFKVGQFGSLMIDRLRLVPAK,soluble
5,MILAILQARMSSTRLPGKVLMPLQRQPMIVRQIERVARSKRIDKLVVATSDRPEDDAIEAAVRREGIAVFRGSLDNVQQRFIGALDAHPADHVVRLTADCPLADPTLIDATIDLCLSKGADYVSNTPEGHAHPKGTDVEVMTAAALRRAAAEATTKEAFEHVTWDLWNQPQRWTCAWLPCFPDQGAVRWTVDRPDDYAFVAAVYDALYPANRAFTSDDIRAFVAGRPDLQDYGGDRRALEHHHHHH,not soluble
6,MILDTDYITENGKPVIRVFKKENGEFKIEYDRTFEPYFYALLKDDSAIEDVKKVTAKRHGTVVKVKRAEKVQKKFLGRPIEVWKLYFNHPQDVPAIRDRIRAHPAVVDIYEYDIPFAKRYLIDKGLIPMEGDEELTMLAFAIATLYHEGEEFGTGPILMISYADGSEARVITWKKIDLPYVDVVSTEKEMIKRFLRVVREKDPDVLITYNGDNFDFAYLKKRCEELGIKFTLGRDGSEPKIQRMGDRFAVEVKGRIHFDLYPVIRRTINLPTYTLEAVYEAVFGKPKEKVYAEEIAQAWESGEGLERVARYSMEDAKVTYELGREFFPMEAQLSRLIGQSLWDVSRSSTGNLVEWFLLRKAYKRNELAPNKPDERELARRRGGYAGGYVKEPERGLWDNIVYLDFRSLYPSIIITHNVSPDTLNREGCKEYDVAPEVGHKFCKDFPGFIPSLLGDLLEERQKIKRKMKATVDPLEKKLLDYRQRAIKILANSFYGYYGYAKARWYCKECAESVTAWGREYIEMVIRELEEKFGFKVLYADTDGLHATIPGADAETVKKKAKEFLKYINPKLPGLLELEYEGFYVRGFFVTKKKYAVIDEEGKITTRGLEIVRRDWSEIAKETQARVLEAILKHGDVEEAVRIVKEVTEKLSKYEVPPEKLVIHEQITRDLRDYKATGPHVAVAKRLAARGVKIRPGTVISYIVLKGSGRIGDRAIPADEFDPTKHRYDAEYYIENQVLPAVERILKAFGYRKEDLRYQKTKQVGLGAWLKVKGKK,soluble
7,MILETISKQLQEQQESLNKDYRKKLESIKERSDRLESDLKTQFDAQLEKWEQNFKGYEQQLTDILNEREQLDLDQQRLNAQKQALENHMKQREE,not soluble
8,MILIKNGRVMDPKSQRDQVADVLIDGKQIVKIASAIECQEAQVIDASGLIVAPGLVDIHVHFREPGQTHKEDIHTGALAAAAGGVTTVVMMANTNPVISDVETLQEVLASAAKEKIHIYTNASVTQAFNGKDVTDFKALLEAGAVSFSDDGIPLESSKVLKEAFDLANANQTFISLHEEDPQLNGVLGFNEGIAEEHFHFCGATGVAEYSMIARDVMIAYDRQAHVHIQHLSKAESVQVVAFAQQLGAKVTAEVSPQHFSTTEDLLLIAGTSAKMNPPLRTQRDRLAVIEGLKSGVITVIATDHAPHHKDEKTVDDMTKAPSGMTGLETSLSLGLTHLVEPGHLTLMSLLEKMTLNPALLYGFDAGYLAENGPADLVIFADKQERLITENFASKASNSPFIGNKLKGVVKYTIADGEVVYPN,not soluble
9,MILINVKYQVRPEYVDTFLDEVKWFTDACRAEEGNLFFDWFKNPEKDNEFILVEGFKDGSDVAHVQSEAFQRACEEIPRYLLETPKIINVSIPGKTEWDTMAEFVVE,not soluble
